This is an account of results in patent publication US20100075326A1.

Read-outs that look alike come from different tables or passages of the source.

Assay [1] addresses T1, base coil K3 (three heptad repeats), YS2H bait fused to Aga2 with C-terminal FLAG tag (yeast).
Assay [2] concerns the target T2, base coil K4 (four heptad repeats), YS2H bait fused to Aga2 with C-terminal FLAG tag (yeast).
Assay [3] deals with T3, base coil K5 (five heptad repeats), YS2H bait fused to Aga2 with C-terminal FLAG tag (yeast).
Assay [4] has as its target T1, base coil K3 (three heptad repeats), …. Kind of assay: predicted from YS2H (flow cytometry of Myc and FLAG tags, Langmuir equation).
For assay [5], the target named is T2, base coil K4 (four heptad repeats), …. The assay is described as above.
Assay [6] concerns the target T3, base coil K5 (five heptad repeats), …. Described as above.
The target in assay [7] is T1, base coil K3 (three heptad repeats), …. This is another data set of the same source.
The target in assay [8] is NeGFP (partner of the row 'E3' in Figure 2d, base coil deleted, cytosolic).
In assay [9] the target is T1, base coil K3 (three heptad repeats), …. This is another data set of the same source.
Assay [10] shares this target. As to the kind of experiment: YS2H, Kn-Flag : En-Myc: bait on the yeast surface as Aga2 fusion, secreted prey captured by it; flow cytometry with anti-Myc antibody, MFI of the whole induced population; Flag (bait) MFI of this clone 70; K3-only control Myc MFI 8.

As for VSALEKEVSALEKEVSALEKEVSALEKEVSALEKEEQKLISEEDL (modifications not checked) [acid coil E5 (five heptad repeats), secreted YS2H prey with C-terminal Myc tag], the MFI (anti-Myc) in [1] stood at 10; in assay [2] it was 653; in assay [3] it was 1200. In addition, the Kd in assay [4] is 1290 nM; in assay [5], 18.3 nM; in assay [6], 0.49 nM.
In [2], VSALEKEVSALEKEVSALEKEVSALEKEEQKLISEEDL (modifications not checked) [acid coil E4 (four heptad repeats), secreted YS2H prey with C-terminal Myc tag] came in with an MFI (anti-Myc) of 68. In addition, the Kd in assay [5] is 151 nM.
Take VSALEKEVSALEKEVSALEKEEQKLISEEDL (modifications not checked) [acid coil E3 (three heptad repeats), secreted YS2H prey with C-terminal Myc tag]: the MFI of complemented split eGFP, secretory pathway (K3-NeGFP-Flag : E3-CeGFP-Myc); Flag MFI 67 in assay [7] came out at 20. This molecule also registered an MFI of complemented split eGFP in the cytosol, control row 'E3' (NeGFP with the base coil deleted : E3-CeGFP) in [8] of 7. In addition, the MFI of complemented split eGFP in the cytosol (K3-NeGFP : E3-CeGFP, no signal sequences) in [9] worked out at 216. Further, in assay [4], the Kd is 1270 nM. The same molecule gave an MFI (anti-Myc) in assay [10] of 8.
